T1: G9a and GLP (Homo sapiens, UniProt Q96KQ7+Q9H9B1)
T1 sequence (Q96KQ7 2-1210 limits assumed): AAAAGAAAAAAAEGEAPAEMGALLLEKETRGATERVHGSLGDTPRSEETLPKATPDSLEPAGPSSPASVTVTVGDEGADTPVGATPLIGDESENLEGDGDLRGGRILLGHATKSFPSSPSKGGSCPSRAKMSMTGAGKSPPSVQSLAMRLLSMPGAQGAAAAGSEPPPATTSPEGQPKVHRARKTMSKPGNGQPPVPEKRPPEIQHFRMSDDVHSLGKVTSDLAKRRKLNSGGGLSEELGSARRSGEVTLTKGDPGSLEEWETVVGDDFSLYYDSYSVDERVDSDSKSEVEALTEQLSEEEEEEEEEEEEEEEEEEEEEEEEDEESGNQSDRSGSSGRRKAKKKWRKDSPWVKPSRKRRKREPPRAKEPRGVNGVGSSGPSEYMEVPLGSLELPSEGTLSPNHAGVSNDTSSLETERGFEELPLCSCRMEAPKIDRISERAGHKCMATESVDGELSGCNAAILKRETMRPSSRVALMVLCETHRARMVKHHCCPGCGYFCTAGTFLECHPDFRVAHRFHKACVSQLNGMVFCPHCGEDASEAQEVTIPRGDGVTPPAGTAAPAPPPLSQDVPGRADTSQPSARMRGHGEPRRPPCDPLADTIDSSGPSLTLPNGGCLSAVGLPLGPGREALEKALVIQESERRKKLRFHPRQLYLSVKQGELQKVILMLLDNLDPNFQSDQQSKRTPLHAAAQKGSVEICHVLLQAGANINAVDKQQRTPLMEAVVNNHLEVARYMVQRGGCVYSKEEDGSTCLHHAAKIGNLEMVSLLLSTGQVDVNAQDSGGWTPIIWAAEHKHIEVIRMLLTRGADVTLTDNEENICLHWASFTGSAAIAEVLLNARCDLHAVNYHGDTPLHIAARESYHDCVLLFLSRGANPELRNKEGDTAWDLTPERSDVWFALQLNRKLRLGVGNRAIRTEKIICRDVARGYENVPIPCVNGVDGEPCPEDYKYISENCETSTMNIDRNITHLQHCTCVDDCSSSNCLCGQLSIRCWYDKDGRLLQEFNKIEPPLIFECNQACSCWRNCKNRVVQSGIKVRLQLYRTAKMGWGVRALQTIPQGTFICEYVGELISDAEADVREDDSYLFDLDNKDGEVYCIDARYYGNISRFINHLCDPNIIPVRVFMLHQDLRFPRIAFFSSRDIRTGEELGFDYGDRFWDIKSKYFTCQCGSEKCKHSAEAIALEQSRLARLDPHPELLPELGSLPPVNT
T1 sequence (Q9H9B1 2-1298 limits assumed): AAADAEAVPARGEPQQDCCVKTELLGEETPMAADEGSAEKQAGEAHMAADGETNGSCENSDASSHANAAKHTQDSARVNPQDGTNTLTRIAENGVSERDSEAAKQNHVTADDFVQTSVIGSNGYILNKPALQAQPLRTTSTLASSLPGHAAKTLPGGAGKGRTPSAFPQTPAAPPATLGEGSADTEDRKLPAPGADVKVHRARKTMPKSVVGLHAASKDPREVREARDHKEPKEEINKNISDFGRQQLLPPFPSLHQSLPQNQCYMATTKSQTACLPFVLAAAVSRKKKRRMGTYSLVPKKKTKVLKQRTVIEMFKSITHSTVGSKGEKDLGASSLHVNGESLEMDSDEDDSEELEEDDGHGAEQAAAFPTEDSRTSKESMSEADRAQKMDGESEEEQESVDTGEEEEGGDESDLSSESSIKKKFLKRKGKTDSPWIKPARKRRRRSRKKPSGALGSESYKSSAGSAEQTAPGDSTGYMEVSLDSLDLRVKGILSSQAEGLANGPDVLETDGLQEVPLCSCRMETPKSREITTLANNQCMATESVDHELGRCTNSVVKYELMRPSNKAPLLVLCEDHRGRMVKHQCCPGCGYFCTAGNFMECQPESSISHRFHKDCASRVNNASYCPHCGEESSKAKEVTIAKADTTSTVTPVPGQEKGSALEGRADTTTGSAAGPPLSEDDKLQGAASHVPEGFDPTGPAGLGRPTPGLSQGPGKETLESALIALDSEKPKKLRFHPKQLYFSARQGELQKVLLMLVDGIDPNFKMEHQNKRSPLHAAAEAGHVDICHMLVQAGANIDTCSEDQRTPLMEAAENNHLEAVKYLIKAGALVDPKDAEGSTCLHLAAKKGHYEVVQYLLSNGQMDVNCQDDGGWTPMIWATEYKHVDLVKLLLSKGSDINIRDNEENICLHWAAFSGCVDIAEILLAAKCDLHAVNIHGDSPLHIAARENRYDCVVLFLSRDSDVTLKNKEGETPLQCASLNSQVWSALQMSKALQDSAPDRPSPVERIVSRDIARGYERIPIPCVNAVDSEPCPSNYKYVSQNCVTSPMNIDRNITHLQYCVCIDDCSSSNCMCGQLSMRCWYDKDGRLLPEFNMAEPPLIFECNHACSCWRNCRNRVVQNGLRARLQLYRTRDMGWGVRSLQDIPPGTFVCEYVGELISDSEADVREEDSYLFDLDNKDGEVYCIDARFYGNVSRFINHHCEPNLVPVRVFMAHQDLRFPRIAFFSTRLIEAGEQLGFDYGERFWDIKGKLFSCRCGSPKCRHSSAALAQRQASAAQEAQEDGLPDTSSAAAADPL

B1: ADAR (protein, UniProt P55265 1-1226, looked up)
Double-stranded RNA-specific …: MNPRQGYSLSGYYTHPFQGYEHRQLRYQQPGPGSSPSSFLLKQIEFLKGQLPEAPVIGKQTPSLPPSLPGLRPRFPVLLASSTRGRQVDIRGVPRGVHLRSQGLQRGFQHPSPRGRSLPQRGVDCLSSHFQELSIYQDQEQRILKFLEELGEGKATTAHDLSGKLGTPKKEINRVLYSLAKKGKLQKEAGTPPLWKIAVSTQAWNQHSGVVRPDGHSQGAPNSDPSLEPEDRNSTSVSEDLLEPFIAVSAQAWNQHSGVVRPDSHSQGSPNSDPGLEPEDSNSTSALEDPLEFLDMAEIKEKICDYLFNVSDSSALNLAKNIGLTKARDINAVLIDMERQGDVYRQGTTPPIWHLTDKKRERMQIKRNTNSVPETAPAAIPETKRNAEFLTCNIPTSNASNNMVTTEKVENGQEPVIKLENRQEARPEPARLKPPVHYNGPSKAGYVDFENGQWATDDIPDDLNSIRAAPGEFRAIMEMPSFYSHGLPRCSPYKKLTECQLKNPISGLLEYAQFASQTCEFNMIEQSGPPHEPRFKFQVVINGREFPPAEAGSKKVAKQDAAMKAMTILLEEAKAKDSGKSEESSHYSTEKESEKTAESQTPTPSATSFFSGKSPVTTLLECMHKLGNSCEFRLLSKEGPAHEPKFQYCVAVGAQTFPSVSAPSKKVAKQMAAEEAMKALHGEATNSMASDNQPEGMISESLDNLESMMPNKVRKIGELVRYLNTNPVGGLLEYARSHGFAAEFKLVDQSGPPHEPKFVYQAKVGGRWFPAVCAHSKKQGKQEAADAALRVLIGENEKAERMGFTEVTPVTGASLRRTMLLLSRSPEAQPKTLPLTGSTFHDQIAMLSHRCFNTLTNSFQPSLLGRKILAAIIMKKDSEDMGVVVSLGTGNRCVKGDSLSLKGETVNDCHAEIISRRGFIRFLYSELMKYNSQTAKDSIFEPAKGGEKLQIKKTVSFHLYISTAPCGDGALFDKSCSDRAMESTESRHYPVFENPKQGKLRTKVENGEGTIPVESSDIVPTWDGIRLGERLRTMSCSDKILRWNVLGLQGALLTHFLQPIYLKSVTLGYLFSQGHLTRAICCRVTRDGSAFEDGLRHPFIVNHPKVGRVSIYDSKRQSGKTKETSVNWCLADGYDLEILDGTRGTVDGPRNELSRVSKKNIFLLFKKLCSFRYRRDLLRLSYGEAKKAARDYETAKNYFKKGLKDMGYGNWISKPQEEKNFYLCPV
B2: LIG3 (protein, UniProt P49916 43-1009, looked up)
DNA ligase 3: LLHGHPLFLRRKPVLSFQGSHLRSRATYLVFLPGLHVGLCSGPCEMAEQRFCVDYAKRGTAGCKKCKEKIVKGVCRIGKVVPNPFSESGGDMKEWYHIKCMFEKLERARATTKKIEDLTELEGWEELEDNEKEQITQHIADLSSKAAGTPKKKAVVQAKLTTTGQVTSPVKGASFVTSTNPRKFSGFSAKPNNSGEAPSSPTPKRSLSSSKCDPRHKDCLLREFRKLCAMVADNPSYNTKTQIIQDFLRKGSAGDGFHGDVYLTVKLLLPGVIKTVYNLNDKQIVKLFSRIFNCNPDDMARDLEQGDVSETIRVFFEQSKSFPPAAKSLLTIQEVDEFLLRLSKLTKEDEQQQALQDIASRCTANDLKCIIRLIKHDLKMNSGAKHVLDALDPNAYEAFKASRNLQDVVERVLHNAQEVEKEPGQRRALSVQASLMTPVQPMLAEACKSVEYAMKKCPNGMFSEIKYDGERVQVHKNGDHFSYFSRSLKPVLPHKVAHFKDYIPQAFPGGHSMILDSEVLLIDNKTGKPLPFGTLGVHKKAAFQDANVCLFVFDCIYFNDVSLMDRPLCERRKFLHDNMVEIPNRIMFSEMKRVTKALDLADMITRVIQEGLEGLVLKDVKGTYEPGKRHWLKVKKDYLNEGAMADTADLVVLGAFYGQGSKGGMMSIFLMGCYDPGSQKWCTVTKCAGGHDDATLARLQNELDMVKISKDPSKIPSWLKVNKIYYPDFIVPDPKKAAVWEITGAEFSKSEAHTADGISIRFPRCTRIRDDKDWKSATNLPQLKELYQLSKEKADFTVVAGDEGSSTTGGSSEENKGPSGSAVSRKAPSKPSASTKKAEGKLSNSNSKDGNMQTAKPSAMKVGEKLATKSSPVKVGEKRKAADETLCQTKVLLDIFTGVRLYLPPSTPDFSRLRRYFVAFDGDLVQEFDMTSATHVLGSRDKNPAAQQVSPEWIWACIRKRRLVAPC
B3: HNRNPUL1 (protein, UniProt Q9BUJ2 1-856, looked up)
Heterogeneous nuclear …: MDVRRLKVNELREELQRRGLDTRGLKAELAERLQAALEAEEPDDERELDADDEPGRPGHINEEVETEGGSELEGTAQPPPPGLQPHAEPGGYSGPDGHYAMDNITRQNQFYDTQVIKQENESGYERRPLEMEQQQAYRPEMKTEMKQGAPTSFLPPEASQLKPDRQQFQSRKRPYEENRGRGYFEHREDRRGRSPQPPAEEDEDDFDDTLVAIDTYNCDLHFKVARDRSSGYPLTIEGFAYLWSGARASYGVRRGRVCFEMKINEEISVKHLPSTEPDPHVVRIGWSLDSCSTQLGEEPFSYGYGGTGKKSTNSRFENYGDKFAENDVIGCFADFECGNDVELSFTKNGKWMGIAFRIQKEALGGQALYPHVLVKNCAVEFNFGQRAEPYCSVLPGFTFIQHLPLSERIRGTVGPKSKAECEILMMVGLPAAGKTTWAIKHAASNPSKKYNILGTNAIMDKMRVMGLRRQRNYAGRWDVLIQQATQCLNRLIQIAARKKRNYILDQTNVYGSAQRRKMRPFEGFQRKAIVICPTDEDLKDRTIKRTDEEGKDVPDHAVLEMKANFTLPDVGDFLDEVLFIELQREEADKLVRQYNEEGRKAGPPPEKRFDNRGGGGFRGRGGGGGFQRYENRGPPGGNRGGFQNRGGGSGGGGNYRGGFNRSGGGGYSQNRWGNNNRDNNNSNNRGSYNRAPQQQPPPQQPPPPQPPPQQPPPPPSYSPARNPPGASTYNKNSNIPGSSANTSTPTVSSYSPPQPSYSQPPYNQGGYSQGYTAPPPPPPPPPAYNYGSYGGYNPAPYTPPPPPTAQTYPQPSYNQYQQYAQQWNQYYQNQGQWPPYYGNYDYGSYSGNTQGGTSTQ

system: 3×MBT domain of L3MBTL1; assay: Triple SILAC pull-down, 3xMBT/3xMBTD355N ratio (cytoplasmic, nuclear and chromatin fractions of 293T cells); type: binding, human; conditions: SILAC ratio, pull-down 3xMBT vs 3xMBTD355N; experiment with UNC0638 in heavy SILAC media;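 note: proteins quantified with MaxQuant, requiring at least two unique peptides and quantification in both label directions, normalized to the mean of proteins from a digested loading control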

Molecule	3xMBT/D355N UNC Heavy [log base 2]
B1	2.00
B2	2.43
B3	2.97

same assay, conditions: SILAC ratio, pull-down 3xMBT vs 3xMBTD355N; experiment with UNC0638 in light SILAC media

Molecule	3xMBT/D355N UNC Light [log base 2]
B1	2.47
B2	2.16
B3	3.07

biological target: T1, G9a and GLP; assay: Triple SILAC pull-down after UNC0638 treatment of 293T cells, DMSO/UNC0638 ratio of protein captured by 3×MBT; type: cell-based; parameters: endogenous in cells; host or cells: HEK 293T; conditions: SILAC ratio DMSO/UNC0638 of protein pulled down with 3xMBT; UNC0638 in heavy SILAC media;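 note: mass spectrometry (Q-Exactive) SILAC quantitation, DMSO/UNC0638 ratio computed after subtracting 3×MBTD355N mutant pull-down background, only proteins with at least twofold 3×MBT over mutant signal considered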

Molecule	Relative to UNC0638 UNC Heavy [log base 2]
B1	0.37
B2	0.26
B3	−0.17

same assay, conditions: SILAC ratio DMSO/UNC0638 of protein pulled down with 3xMBT; UNC0638 in light SILAC media

Molecule	Relative to UNC0638 UNC Light [log base 2]
B1	0.07
B2	0.18
B3	0.61

same assay, conditions: average of UNC Light and UNC Heavy experiments

Molecule	Relative to UNC0638 Average [log base 2]
B1	0.22
B2	0.22
B3	0.22
